Drawing on patent US20080219974A1 (published 2008), this text covers Kd, EC50 and koff for 19 molecules.

Residue numbers refer to the chain shown, from its start. In names and notes the source's numbering stands.

First the molecules themselves.
T1: His-tagged HM1.24 antigen, residues N49-A163 of the extracellular domain (UniProt Q10589 49-163)
T1 chain: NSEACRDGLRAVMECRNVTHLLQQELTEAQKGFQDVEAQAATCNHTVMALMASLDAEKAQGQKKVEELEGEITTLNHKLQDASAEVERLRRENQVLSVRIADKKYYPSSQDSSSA

T2: Human HM1.24 on RPMI 8226 multiple myeloma cells (UniProt Q10589 1-161)
T2 chain: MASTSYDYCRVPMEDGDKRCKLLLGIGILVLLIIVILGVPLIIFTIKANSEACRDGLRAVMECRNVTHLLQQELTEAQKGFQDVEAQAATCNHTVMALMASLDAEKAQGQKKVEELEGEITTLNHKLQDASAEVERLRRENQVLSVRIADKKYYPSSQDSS

B1: H0L0_IgG1_S239D/I332E (antibody, V domains shown)
VH: QVQLQQSGAELARPGASVKLSCKASGYTFTPYWMQWVKQRPGQGLEWIGSIFPGDGDTRYSQKFKGKATLTADKSSSTAYMQLSILAFEDSAVYYCARGLRRGGYYFDYWGQGTTLTVSS
VL: DIVMTQSHKFMSTSVGDRVSITCKASQDVNTAVAWYQQKPGQSPKLLIYSASNRYTGVPDRITGSGSGTDFTFTISSVQAEDLALYYCQQHYSTPFTFGSGTKLEIK
B2: HM1.24_H0L0_IgG1_WT (antibody, V domains shown)
VH: B1 VH
VL: DIVMTQSHKFMSTSVGDRVSITCKASQDVNTAVAWYQQKPGQSPKLLIYSASNRYTGVPDRITGSGSGTDFTFTISSVQAEDLALYYCQQHYSTPFTFGSGTKLEIKR
B3: HM1.24_H1.2 heavy chain variant with HM1.24_L4 light chain (antibody, V domains shown)
VH: QVQLVQSGAEVKKPGASVKVSCKASGYTFTPYWMQWVRQAPGQGLEWMGSIFPGSGDTRYSQSFQGQVTISADKSISTAYMELSRLRSDDTAVYYCARGLRRGGYYFDYWGQGTLVTVSS
VL: DIVMTQSPLSLPVTLGQPASISCKASQDVNTAVAWYLQKPGKSPKLLIYSASNRYTGVPDRITGSGSGTDFTLKISRVEAEDVGVYYCQQHYSTPFTFGSGTKLEIKR
B4: HM1.24_H1L4 (antibody, V domains shown)
VH: B3 VH with S55D
VL: B3 VL
B5: HM1.24_H1L2 (antibody, V domains shown)
VH: B3 VH with S55D
VL: DIVMTQSPSSLSASVGDRVTITCQASQDVNTAVAWYQQKPDQSPKLLIYSASNRYTGVPDRITGSGSGTDFTLTISSLQAEDVAVYYCQQHYSTPFTFGSGTKLEIKR
B6: HM1.24_H2L2 (antibody, V domains shown)
VH: EVQLVESGGGLVKPGGSLRLSCAASGYTFTPYWMQWVRQAPGKGLEWMGSIFPGDGDTRYSQSFQGQVTISADKSISTAYMELSSLRSEDTAVYYCARGLRRGGYYFDYWGQGTLVTVSS
VL: B5 VL
B7: H2L3_Hybrid_S239D/I332E (antibody, V domains shown)
VH: B6 VH
VL: B5 VL with S9P, S10T, A13L, V15P, D17E, I21L, T22S, Q24R, A80P, V83F
B8: H1L3_Hybrid_S239D/I332E (antibody, V domains shown)
VH: B3 VH with S55D
VL: B5 VL with S9P, S10T, A13L, V15P, D17E, I21L, T22S, Q24R, A80P, V83F
B9: HM1.24_H2L4 (antibody, V domains shown)
VH: B6 VH
VL: B3 VL
B10: HM1.24_H2.3 heavy chain variant with HM1.24_L4 light chain (antibody, V domains shown)
VH: B6 VH with G56S
VL: B3 VL
B11: HM1.24_H1.1 heavy chain variant with HM1.24_L4 light chain (antibody, V domains shown)
VH: B3 VH with S55E
VL: B3 VL
B12: HM1.24_H1.3_L2_Hybrid_S239D/I332E (antibody, V domains shown)
VH: B3 VH with S55D, G56S
VL: B5 VL
B13: HM1.24_H2.1 heavy chain variant with HM1.24_L4 light chain (antibody, V domains shown)
VH: B6 VH with D55E
VL: B3 VL
B14: HM1.24_H1.2_L2_Hybrid_S239D/I332E (antibody, V domains shown)
VH: B3 VH
VL: B5 VL
B15: HM1.24_H1.4 heavy chain variant with HM1.24_L4 light chain (antibody, V domains shown)
VH: B3 VH with S55D, G56A
VL: B3 VL
B16: HM1.24_H1.4_L2_Hybrid_S239D/I332E (antibody, V domains shown)
VH: B3 VH with S55D, G56A
VL: B5 VL
B17: HM1.24_H1.3 heavy chain variant with HM1.24_L4 light chain (antibody, V domains shown)
VH: B3 VH with S55D, G56S
VL: B3 VL
B18: HM1.24_H2.4 heavy chain variant with HM1.24_L4 light chain (antibody, V domains shown)
VH: B6 VH with G56A
VL: B3 VL
B19: HM1.24_H1.1_L2_Hybrid_S239D/I332E (antibody, V domains shown)
VH: B3 VH with S55E
VL: B5 VL

One experiment addresses T1, His-tagged HM1.24 antigen, residues …. As to the kind of experiment: Biacore.
As a reminder, the Kd is the free concentration of one partner at which half of the binding sites on the other are occupied at equilibrium, for simple one-to-one binding. A high value points to lower affinity. For the molecule B1, binding was characterised by a dissociation constant (Kd) of 0.0522 nM.

With B2, the affinity, expressed as Kd, was 0.0511 nM.

Turning to B3, the Kd came out at 0.062 nM.

In turn, B4 came in with a Kd of 0.0381 nM.

B5 returned a Kd of 0.0269 nM.

For another experiment, the target named is T2, Human HM1.24 on RPMI 8226 multiple …. As to the kind of experiment: flow cytometry. On the technique in general: A flow cytometer gives signals particle by particle.
The term EC50 denotes the concentration that produces a half-maximal response. As for B1, the EC50 turned out to be 2.22 nM.

For B2, the midpoint of the response, the EC50, lay at 2.46 nM.

In turn, B6 returned an EC50 of 5.83 nM.

In the case of B7, the EC50 is 13.1 nM.

Take B8: the EC50 came out at 3.26 nM.

Regarding B4, the EC50 was found to be 1.89 nM.

With B5, the response was half-maximal at 2.52 nM (EC50).

In turn, B9 came in with a concentration giving a half-maximal response (EC50) of 3.55 nM.

In a further experiment the target is T1, His-tagged HM1.24 antigen, residues …. The experiment in a line: Biacore. The source holds these as a separate data set. Background: Surface plasmon resonance follows binding to a sensor surface in real time, without labels.
B1 displayed a Kd of 0.0637 nM.

Turning to B2, the Kd was 0.0537 nM.

The molecule B3 showed a dissociation constant Kd of 0.0711 nM.

As for B4, binding was characterised by a dissociation constant (Kd) of 0.0572 nM.

The molecule B5 showed an equilibrium dissociation constant (Kd) of 0.0574 nM.

For another experiment the target is unchanged. The experiment in a line: Biacore. This is another data set of the same source.
What is called koff is the first-order rate constant of dissociation. Read a low koff as slow dissociation. In turn, B3 registered a koff of 0.00203 s⁻¹.

In the case of B10, the koff came to 0.00374 s⁻¹.

As to B11, the koff was 0.00251 s⁻¹.

With B12, the koff was determined as 0.003 s⁻¹.

The molecule B13 returned a dissociation rate constant (koff) of 0.00266 s⁻¹.

For B14, the koff is 0.00371 s⁻¹.

B15 registered a koff of 0.00298 s⁻¹.

As to B16, the koff was found to be 0.00352 s⁻¹.

In the case of B4, the koff is 0.00352 s⁻¹.

In turn, B17 registered an off-rate (koff) of 0.00261 s⁻¹.

For B18, the off-rate constant (koff) amounted to 0.004 s⁻¹.

For B5, the koff stood at 0.00318 s⁻¹.

B9 yielded a koff of 0.00418 s⁻¹.

On to B19, for which the koff was determined as 0.0032 s⁻¹.

The next experiment has the same target. The experiment in a line: Biacore. The source holds these as a separate data set.
Consider B3, for which the off-rate (koff) was 0.0023 s⁻¹.

In turn, B10 gave a dissociation rate constant (koff) of 0.00327 s⁻¹.

For the molecule B11, the koff is 0.00201 s⁻¹.

As for B12, the koff came out at 0.00279 s⁻¹.

Consider B13, for which the koff was 0.00218 s⁻¹.

B14 showed a koff of 0.0039 s⁻¹.

In turn, B15 came in with a dissociation rate constant (koff) of 0.00298 s⁻¹.

B16 came in with a koff of 0.00274 s⁻¹.

In the case of B4, the off-rate (koff) worked out at 0.00243 s⁻¹.

On to B17, for which the koff is 0.00229 s⁻¹.

The molecule B18 showed a koff of 0.0029 s⁻¹.

Regarding B5, the koff turned out to be 0.00241 s⁻¹.

Take B9: the koff was 0.00299 s⁻¹.

Turning to B19, the koff was determined as 0.00206 s⁻¹.
